Assay [1] has as its target T1, recombinant human β2-glycoprotein I (insect cells) (human, UniProt P02749 20-345).
T1 construct: also called recombinant β2GPI; rβ2GPI
T1 sequence (looked up): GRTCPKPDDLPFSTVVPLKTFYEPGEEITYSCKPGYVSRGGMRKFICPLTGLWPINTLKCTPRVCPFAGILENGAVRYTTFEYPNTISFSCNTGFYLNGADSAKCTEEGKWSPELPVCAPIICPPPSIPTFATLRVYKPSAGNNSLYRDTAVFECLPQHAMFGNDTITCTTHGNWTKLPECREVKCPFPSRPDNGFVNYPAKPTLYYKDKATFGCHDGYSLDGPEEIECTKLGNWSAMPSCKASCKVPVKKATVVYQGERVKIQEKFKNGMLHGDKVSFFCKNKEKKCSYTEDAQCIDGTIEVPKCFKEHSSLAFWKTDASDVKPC
Briefly: SPR (Biacore), HGFA F immobilized on CM5 chip. The method, then: (§1) A standardized amine coupling procedure was used to couple proteins with F domains to a CM5 chip (Biacore AB, Uppsala, Sweden). First, the dextran surface of the chips was activated by a 35 μl injection with a 1:1 mixture of 0.1 M N-hydroxysuccinimide (NHS) and 0.4 M N-ethyl-N′-(dimethylaminopropyl)carbodiimide (EDC) at a flow rate of 5 μl min.⁻¹. Then, the proteins were covalently coupled to the activated dextran surface. Remaining activated groups in each of the four flow channels were blocked by injection of 35 μl of 1 M ethanolamine hydrochloride pH 8.5. EDC, NHS and ethanolamine hydrochloride were obtained from Biacore. […] The flow rate was 10 μl min.⁻¹, the injection time was 120″. The running buffer during immobilization was 10 mM HEPES pH 7.4, 140 mM NaCl. Buffers were filtrated on a 0.22 μm filter (white GSWP, 47 mm, Millipore) and degassed at room temperature. For subsequent binding experiments, the running buffer was 10 mM HEPES pH 7.4, 140 mM NaCl, 1.5 mM CaCl₂, 10 mM εACA, 0.005% Tween-20. […] After each injection of protein, the chip was regenerated with 0.1 M H₃PO₄ pH 1.0.

In assay [2] the target is abciximab (ReoPro). Briefly: cell-based or functional assay.
The target in assay [3] is T2, recombinant human Zn2+-chelated insulin (Monotard) (human, UniProt P01308 90-110; P01308 25-54). As to the kind of experiment: cell-based or functional assay.
Assay [4] deals with T3, rapid acting human insulin analogue (NovoRapid Flexpen) (human, UniProt P01308 90-110; P01308 25-54). Briefly: cell-based or functional assay.
The target in assay [5] is Etanercept (Enbrel), native. As to the kind of experiment: cell-based or functional assay.
Assay [6] has as its target Infliximab (Remicade), human-murine chimeric monoclonal antibody. As to the kind of experiment: cell-based or functional assay.
For assay [7], the target named is T4, human coagulation factor VIII (FVIII) (Aafact) (human, UniProt P00451 20-2351).
T4 chain 1: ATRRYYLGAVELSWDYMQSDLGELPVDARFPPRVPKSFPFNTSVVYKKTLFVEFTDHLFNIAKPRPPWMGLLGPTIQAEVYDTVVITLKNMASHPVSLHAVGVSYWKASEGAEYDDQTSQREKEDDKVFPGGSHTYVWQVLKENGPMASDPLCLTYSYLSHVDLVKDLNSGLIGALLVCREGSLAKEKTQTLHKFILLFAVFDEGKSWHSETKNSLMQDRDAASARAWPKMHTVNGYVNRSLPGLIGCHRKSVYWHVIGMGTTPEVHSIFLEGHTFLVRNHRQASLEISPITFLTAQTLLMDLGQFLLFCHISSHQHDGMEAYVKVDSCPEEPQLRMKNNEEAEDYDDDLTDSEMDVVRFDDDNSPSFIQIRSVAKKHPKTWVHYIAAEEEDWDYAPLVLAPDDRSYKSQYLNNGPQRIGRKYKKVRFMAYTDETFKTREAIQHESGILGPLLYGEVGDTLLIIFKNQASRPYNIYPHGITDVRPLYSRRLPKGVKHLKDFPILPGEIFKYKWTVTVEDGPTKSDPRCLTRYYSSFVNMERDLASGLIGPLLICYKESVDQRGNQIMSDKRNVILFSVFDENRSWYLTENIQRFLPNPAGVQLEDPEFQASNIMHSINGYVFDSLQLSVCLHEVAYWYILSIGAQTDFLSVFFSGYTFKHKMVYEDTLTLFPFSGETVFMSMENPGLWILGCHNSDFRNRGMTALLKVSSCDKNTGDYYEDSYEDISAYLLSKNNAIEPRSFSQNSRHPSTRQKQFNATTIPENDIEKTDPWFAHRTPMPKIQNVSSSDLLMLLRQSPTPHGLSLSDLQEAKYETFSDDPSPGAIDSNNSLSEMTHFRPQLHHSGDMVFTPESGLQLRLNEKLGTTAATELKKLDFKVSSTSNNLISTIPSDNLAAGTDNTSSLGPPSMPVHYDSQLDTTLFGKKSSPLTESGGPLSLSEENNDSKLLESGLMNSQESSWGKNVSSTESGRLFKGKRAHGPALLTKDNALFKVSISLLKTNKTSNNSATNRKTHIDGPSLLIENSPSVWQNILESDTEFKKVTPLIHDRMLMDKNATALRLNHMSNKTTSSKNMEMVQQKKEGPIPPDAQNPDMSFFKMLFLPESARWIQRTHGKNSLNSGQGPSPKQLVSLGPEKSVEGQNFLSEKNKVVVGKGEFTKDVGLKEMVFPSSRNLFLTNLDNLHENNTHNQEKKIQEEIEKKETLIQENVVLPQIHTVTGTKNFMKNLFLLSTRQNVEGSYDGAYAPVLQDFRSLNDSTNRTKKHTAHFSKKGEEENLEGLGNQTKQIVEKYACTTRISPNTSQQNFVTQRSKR
T4 chain 2: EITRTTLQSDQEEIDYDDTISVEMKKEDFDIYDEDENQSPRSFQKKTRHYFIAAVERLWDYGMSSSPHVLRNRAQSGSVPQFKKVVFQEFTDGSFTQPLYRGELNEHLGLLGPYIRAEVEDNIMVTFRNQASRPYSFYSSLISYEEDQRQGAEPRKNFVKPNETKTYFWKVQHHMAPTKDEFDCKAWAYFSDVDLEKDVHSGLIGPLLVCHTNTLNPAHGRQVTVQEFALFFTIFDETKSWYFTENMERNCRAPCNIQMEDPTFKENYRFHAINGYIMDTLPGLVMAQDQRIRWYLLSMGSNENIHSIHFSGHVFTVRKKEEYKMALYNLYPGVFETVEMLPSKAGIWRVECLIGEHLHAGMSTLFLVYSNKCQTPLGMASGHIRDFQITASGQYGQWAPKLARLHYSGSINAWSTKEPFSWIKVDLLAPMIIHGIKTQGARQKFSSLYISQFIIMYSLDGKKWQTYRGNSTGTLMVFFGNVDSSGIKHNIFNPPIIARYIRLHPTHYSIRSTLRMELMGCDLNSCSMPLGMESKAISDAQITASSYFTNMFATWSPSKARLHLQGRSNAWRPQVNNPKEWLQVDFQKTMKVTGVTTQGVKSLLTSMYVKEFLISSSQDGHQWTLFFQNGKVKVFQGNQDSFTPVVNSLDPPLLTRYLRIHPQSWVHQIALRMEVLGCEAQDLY
As to the kind of experiment: ELISA, therapeutic coated on Nunc Immobilizer plate, concentration series of tPA, one-site binding fit. The method, then: (§2) Plates were washed twice with Tris buffered saline pH 7.2 containing 0.1% Tween20 (TBST) and blocked with PBS containing 1% Tween20 for 1 hour at room temperature. […] Plates were washed five times with TBST and incubated with peroxidase labeled anti-mouse immunoglobulins (RAMPO; DAKOCytomation, Glostrup, Denmark) diluted 1:3000 in PBST for 30 minutes at room temperature. Plates were washed five times with PBS 0.1% Tween20, and stained with 100 μL/well of tetramethyl-benzidine (TMB) substrate (Biosource Europe, Nivelles, Belgium). The reaction was terminated with 50 μL/well of 2 M H₂SO₄ and substrate conversion was read at 450 nm on a Spectramax340 microplate reader. Curves were fitted with a one-site binding model (GraphPad Prism version 4.02 for Windows, Graphpad Software, Calif., USA) from which Kd and Bmax were determined.

Assay [8] has as its target abciximab (ReoPro). The description is as above. The method, then: as §2
Assay [9] deals with T5, human albumin (Cealb, Sanquin-CLB) (human, UniProt P02768 25-609).
T5 construct: also called CeaIb
Described as above. The procedure:
as §2

For assay [10], the target named is T2, recombinant human Zn2+-chelated insulin …. Described as above. The procedure: as §2
The target of assay [11] is T3, rapid acting human insulin analogue …. The assay is described as above. The procedure:
as §2

For assay [12], the target named is T1, recombinant human β2-glycoprotein I …. Briefly: SPR (Biacore), tPA F immobilized on CM5 chip. The procedure:
as §1

Ends that are not written are not given here.

We go through 3 molecules from patent US20080220446A1 (published 2008).

Sequence of abciximab (ReoPro) (VH, as listed by the source, chain 1 of 2): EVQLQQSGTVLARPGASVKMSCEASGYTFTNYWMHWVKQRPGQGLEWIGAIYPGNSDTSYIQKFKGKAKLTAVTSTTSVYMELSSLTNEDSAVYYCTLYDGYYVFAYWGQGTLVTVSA
Sequence of abciximab (ReoPro) (VL, as listed by the source, chain 2 of 2): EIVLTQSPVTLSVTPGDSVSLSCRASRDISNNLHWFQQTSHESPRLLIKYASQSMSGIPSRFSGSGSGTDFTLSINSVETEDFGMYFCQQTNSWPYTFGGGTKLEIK
T3 sequence (P01308 90-110 limits assumed, chain 1 of 2): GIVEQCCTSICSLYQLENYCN
T3 sequence (P01308 other isoform, or with tags, fused parts or gaps limits assumed, chain 2 of 2): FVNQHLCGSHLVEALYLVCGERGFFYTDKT
T2 sequence (P01308 25-54 limits assumed, chain 2 of 2): as the sequence (P01308 other isoform, or with tags, fused parts or gaps limits assumed, chain 2 of 2) above, with D28P counted along it

B1: chemically synthesized HGFA F domain (other)
chain: EKCFDETRYEYLEGGDRWARVRQGHVEQCECFGGRTWCEGTK
modifications: carboxy-terminal acetylated lysine residue
notes: domain: F domain; Immobilized on the second Biacore chip
Turning to B1, in assay [1], the binding result is listed as “no binding (tested: 0-300 nM)”.

B2: tissue-type plasminogen activator (tPA) (enzyme, human, UniProt P00750 36-562, looked up)
chain: SYQVICRDEKTQMIYQQHQSWLRPVLRSNRVEYCWCNSGRAQCHSVPVKSCSEPRCFNGGTCQQALYFSDFVCQCPEGFAGKCCEIDTRATCYEDQGISYRGTWSTAESGAECTNWNSSALAQKPYSGRRPDAIRLGLGNHNYCRNPDRDSKPWCYVFKAGKYSSEFCSTPACSEGNSDCYFGNGSAYRGTHSLTESGASCLPWNSMILIGKVYTAQNPSAQALGLGKHNYCRNPDGDAKPWCHVLKNRRLTWEYCDVPSCSTCGLRQYSQPQFRIKGGLFADIASHPWQAAIFAKHRRSPGERFLCGGILISSCWILSAAHCFQERFPPHHLTVILGRTYRVVPGEEEQKFEVEKYIVHKEFDDDTYDNDIALLQLKSDSSRCAQESSVVRTVCLPPADLQLPDWTECELSGYGKHEALSPFYSERLKEAHVRLYPSSRCTSQHLLNRTVTDNMLCAGDTRSGGPQANLHDACQGDSGGPLVCLNDGRMTLVGIISWGLGCGQKDVPGVYTKVTNYLDWIRDNMRP
notes: Full-length commercial tPA; also called Actilyse; Alteplase
As for B2, the “tPA activation, Max. Activation (%) (tPA-dependent plasminogen activation, % of standardized positive control)” value with abciximab (ReoPro) [2] was determined as 0%; in assay [3], 17.4%; in assay [4], 70.9%; in assay [5], 0%; in assay [6] it was 0%. Also, the Bmax is 0.54 OD450 nm in assay [7]; 0.533 OD450 nm in the assay with abciximab (ReoPro) [8]; 1.23 OD450 nm in [9]; 0.756 OD450 nm in [10]; 3.62 OD450 nm in assay [11].

B3: chemically synthesized tPA F domain (other, human)
chain: SYQVICRDEKTQMIYQQHQSWLRPVLRSNRVEYCWCNSGRAQCHSVPVKSK
modifications: ends and bridges not checked; also: C-terminal Lys acetylated or biotinylated, not given here which
notes: domain: F domain; Made by native chemical ligation; immobilized on the second Biacore chip
As for B3, the binding result in [12] was “no binding (tested: 0-300 nM)”.
